# Reference: patent US9125872B2, “Polyethylene glycol aerogels for targeted delivery of pharmaceutical drubs” (priority 2009, dated 2015)
# Assays:
# Assay type in all cases: physicochemical
# [1] = Solubility of purified solid protein-PEG conjugates in water
# [2] = Drug loading and biologics encapsulation in PEG aerogel granules
# Protocol: To 1 gram PEG [MW=2,000,000] dissolved in 100 ml anhydrous toluene, 100 mg [0.1 gram] BSA powder is dispersed and the mixture was stirred at 38-45° C. for 30-60 minutes to allow coating/adsorption of soluble PEG molecules on solid BSA particles. 0.2 g benzoyl peroxide was heated in 15 ml anhydrous toluene at 85° C. for 10 minutes. After cooling to 76° C., the catalyst solution was added to the warm PEG-BSA suspension at 38° C., which raised the temperature to 43° C., and mixing was continued for 15 minutes. The solution was poured into a mold and stored in a glove box. Toluene was later removed from the gel by solvent extraction with supercritical carbon dioxide fluid to obtain dry solid aerogel encapsulating BSA fine particles.
# 5 ml (=2.6 g) granules from PEG aerogel #2 (2009 cold preparation) were desiccated overnight to remove any absorbed vapors during storage.
# Gemzar [Eli Lilly, Indiana] solution was made by dissolving 200 mg Gemcitabine HCl in 5 ml 0.9% NaCl [sodium chloride] aqueous solution. 2.3 ml (0.61 g) PEG aerogel #1 [“hot” preparation, 2009] granules were desiccated overnight to remove any absorbed vapors during storage. […] The mixture was placed in a desiccator to remove excess water and render dry loaded aerogel granules.
# BSA protein (MW=66,000) was used as an example of large biologic molecules to be encapsulated in PEG aerogel during the gelation process. The encapsulation method is described in the aerogel preparation section.
# [3] = Sequential time release of BSA encapsulated in PEG aerogel in distilled water (UV-spectroscopy); conditions: room temperature
# Protocol: As an example of encapsulation and release of pharmaceutical biologics, release tests conducted using one sample weighing 13 mg PEG aerogel encapsulating 1 mg BSA protein in 10 ml distilled water at room temperature. Small solution samples were withdrawn at indicated time intervals above for BSA analysis with UV-spectroscopy at 280 and 260 nm wavelength. Results are calculated and tabulated.
# [4] = of the PEG aerogel granules carrying the drug/biologic
substance,measurement,setting,value
"BSA-PEG-N: BSA linked to aerogel of PEG + Bis(3-aminopropyl) terminated PEG 1,500/2,100",Solubility in Water,[1]; Body Temperature (37° C.),No
same,Solubility in Water,[1]; Room Temperature (23° C.),No
bovine serum albumin [BSA Protein],Aerogel Density,[2]; [4],0.30 g/cc
same,Aerogel Porosity,[2]; [4],75% vol %
same,Loading/Encapsulation,[2]; weight of solution (or BSA) per g PEG aerogel,77 mg/g Aerogel
same,Loading/Encapsulation,[2]; weight of solution (or BSA) per ml PEG aerogel,23 mg/ml Aerogel
same,Released BSA,"[3]; 15 minutes, 13 mg PEG aerogel with 1 mg BSA in 10 ml distilled water",0.19 mg
same,Cumulative Percent Release,"[3]; 15 minutes, distilled water",19 % of 1 mg
same,Cumulative Release,"[3]; 15 minutes, distilled water",0.19 mg
same,Released BSA,"[3]; 3 hours (increment), distilled water",0.22 mg
same,Cumulative Percent Release,"[3]; 3 hours, distilled water",41 % of 1 mg
same,Cumulative Release,"[3]; 3 hours, distilled water",0.41 mg
same,Released BSA,"[3]; 20 hours (increment), distilled water",0.26 mg
same,Cumulative Percent Release,"[3]; 20 hours, distilled water",67 % of 1 mg
same,Cumulative Release,"[3]; 20 hours, distilled water",0.67 mg
BSA-PEG: BSA surface-linked via EDC to PEG only aerogel,Solubility in Water,[1]; Body Temperature (37° C.),No
same,Solubility in Water,"[1]; Body Temperature (37° C.), listed as aerogel-BSA “conjugate”",water insoluble
same,Solubility in Water,[1]; Room Temperature (23° C.),No
"BSA-PEG-O: BSA linked to aerogel of PEG + Diglycidylether terminated PEG, 1000",Solubility in Water,[1]; Body Temperature (37° C.),No
same,Solubility in Water,[1]; Room Temperature (23° C.),No
